Blank lines part the entries; values can stand above or below the molecule they belong to.
How the values were obtained:
[1] = target: CD40 (UniProt P25942); assay: cell-based or functional assay
[2] = target: T1, CD27 (UniProt P26842 20-260, limits assumed); assay: cell-based or functional assay
T1 sequence (looked up): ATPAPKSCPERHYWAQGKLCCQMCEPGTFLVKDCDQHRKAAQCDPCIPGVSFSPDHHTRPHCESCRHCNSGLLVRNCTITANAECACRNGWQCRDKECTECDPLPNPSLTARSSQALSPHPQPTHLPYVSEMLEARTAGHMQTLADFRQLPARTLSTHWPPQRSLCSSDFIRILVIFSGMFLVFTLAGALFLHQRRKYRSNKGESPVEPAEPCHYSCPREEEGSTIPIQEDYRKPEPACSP

[3] = target: T2, human CEA (human, UniProt P06731 35-685, limits assumed); assay: ELISA
T2 sequence (looked up): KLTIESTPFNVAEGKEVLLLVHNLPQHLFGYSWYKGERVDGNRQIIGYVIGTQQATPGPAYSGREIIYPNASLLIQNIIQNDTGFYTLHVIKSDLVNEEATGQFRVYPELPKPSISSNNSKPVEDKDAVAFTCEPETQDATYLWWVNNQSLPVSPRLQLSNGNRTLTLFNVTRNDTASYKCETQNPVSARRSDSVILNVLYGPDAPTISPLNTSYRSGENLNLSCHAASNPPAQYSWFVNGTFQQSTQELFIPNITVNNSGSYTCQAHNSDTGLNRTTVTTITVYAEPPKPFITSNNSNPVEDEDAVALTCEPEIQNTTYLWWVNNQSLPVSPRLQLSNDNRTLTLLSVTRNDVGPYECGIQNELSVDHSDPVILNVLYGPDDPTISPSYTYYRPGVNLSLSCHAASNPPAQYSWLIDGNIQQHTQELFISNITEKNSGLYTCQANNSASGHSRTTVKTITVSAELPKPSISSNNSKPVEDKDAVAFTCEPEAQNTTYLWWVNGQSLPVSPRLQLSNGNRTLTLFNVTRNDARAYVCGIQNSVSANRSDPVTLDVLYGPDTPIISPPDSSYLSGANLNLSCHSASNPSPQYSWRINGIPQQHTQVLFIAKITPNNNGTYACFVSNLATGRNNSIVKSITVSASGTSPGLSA

CD40, sequence (P25942 21-277 limits assumed): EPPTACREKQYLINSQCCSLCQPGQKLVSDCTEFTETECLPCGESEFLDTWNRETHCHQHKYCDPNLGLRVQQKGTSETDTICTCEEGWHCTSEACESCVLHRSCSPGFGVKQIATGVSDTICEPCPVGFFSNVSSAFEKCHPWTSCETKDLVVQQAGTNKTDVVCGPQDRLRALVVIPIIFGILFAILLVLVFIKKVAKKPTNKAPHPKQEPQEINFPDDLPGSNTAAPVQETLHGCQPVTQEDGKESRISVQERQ

- immature dendritic cell activation assay, activation level (CD86+ / CD83+), 100 ng/ml, 24 h [1]: 46.1%
Molecule: Trimeric CD40L (ligand)

- CD27 Luciferase assay with MDA-MB231 cells, activity against that of scCD27L-Fc [2]: ~3 fold
B1: aPDL1-scCD27L-SAB (bispecific antibody, human IgG1, kappa)
chain: QSLGWDVAELQLNHTGPQQDPRLYWQGGPALGRSFLHGPELDKGQLRIHRDGIYMVHIQVTLAICSSTTASRHHPTTLAVGICSPASRSISLLRLSFHQGCTIASQRLTPLARGDTLCTNLTGTLLPSRNTDETFFGVQWVRPGSGSGNGSESLGWDVAELQLNHTGPQQDPRLYWQGGPALGRSFLHGPELDKGQLRIHRDGIYMVHIQVTLAICSSTTASRHHPTTLAVGICSPASRSISLLRLSFHQGCTIASQRLTPLARGDTLCTNLTGTLLPSRNTDETFFGVQWVRPGSGSGNGSESLGWDVAELQLNHTGPQQDPRLYWQGGPALGRSFLHGPELDKGQLRIHRDGIYMVHIQVTLAICSSTTASRHHPTTLAVGICSPASRSISLLRLSFHQGCTIASQRLTPLARGDTLCTNLTGTLLPSRNTDETFFGVQWVRPGSGSDKTHTCPPCPAPELLGGPSVFLFPPKPKDTLMISRTPEVTCVVVDVSHEDPEVKFNWYVDGVEVHNAKTKPREEQYSSTYRVVSVLTVLHQDWLNGKEYKCKVSNKALPAPIEKTISKAKGQPREPQVYTLPPCRDELTKNQVSLWCLVKGFYPSDIAVEWESNGQPENNYKTTPPVLDSDGSFFLYSKLTVDKSRWQQGNVFSCSVMHEALHNHYTQKSLSLSPGK
heavy: EVQLLESGGGLVQPGGSLRLSCAASGFTFSSYIMMWVRQAPGKGLEWVSSIYPSGGITFYADTVKGRFTISRDNSKNTLYLQMNSLRAEDTAVYYCARIKLGTVTTVDYWGQGTLVTVSSASTKGPSVFPLAPSSKSTSGGTAALGCLVKDYFPEPVTVSWNSGALTSGVHTFPAVLQSSGLYSLSSVVTVPSSSLGTQTYICNVNHKPSNTKVDKKVEPKSCDKTHTCPPCPAPELLGGPSVFLFPPKPKDTLMISRTPEVTCVVVDVSHEDPEVKFNWYVDGVEVHNAKTKPREEQYSSTYRVVSVLTVLHQDWLNGKEYKCKVSNKALPAPIEKTISKAKGQPREPQVCTLPPSRDELTKNQVSLSCAVKGFYPSDIAVEWESNGQPENNYKTTPPVLDSDGSFFLVSKLTVDKSRWQQGNVFSCSVMHEALHNRFTQKSLSLSPGK
light: QSALTQPASVSGSPGQSITISCTGTSSDVGGYNYVSWYQQHPGKAPKLMIYDVSNRPSGVSNRFSGSKSGNTASLTISGLQAEDEADYYCSSYTSSSTRVFGTGTKVEIKRTVAAPSVFIFPPSDEQLKSGTASVVCLLNNFYPREAKVQWKVDNALQSGNSQESVTEQDSKDSTYSLSSTLTLSKADYEKHKVYACEVTHQGLSSPVTKSFNRGEC

- binding result [3]: binds
B2: aCEA-scCD40L (bispecific antibody)
heavy: EVQLLESGGGLVQPGGSLRLSCATSGFTFTDYYMNWVRQAPGKGLEWLGFIGNKANGYTTEYSASVKGRFTISRDKSKSTLYLQMNTLQAEDSAIYYCTRDRGLRFYFDYWGQGTLVTVSSASTKGPSVFPFAPSSKSTSGGTAALGCLVKDYFPEPVTVSWNSGALTSGVHTFPAVLQSSGLYSLSSVVTVPSSSLGTQTYICNVNHKPSNTKVDKKVEPKSCDKTHGSGSSSSSSQIAAHVISEASSKTTSVLQWAEKGYYTMSNNLVTLENGKQLTVKRQGLYYIYAQVTFCSNREASSQAPFIASLSLKSPGRFERILLRAANTHSSAKPCGQQSIHLGGVFELQPGASVFVNVTDPSQVSHGTGFTSFGLLKLGSGSGNGSQIAAHVISEASSKTTSVLQWAEKGYYTMSNNLVTLENGKQLTVKRQGLYYIYAQVTFCSNREASSQAPFIASLSLKSPGRFERILLRAANTHSSAKPCGQQSIHLGGVFELQPGASVFVNVTDPSQVSHGTGFTSFGLLKLGSGSGNGSQIAAHVISEASSKTTSVLQWAEKGYYTMSNNLVTLENGKQLTVKRQGLYYIYAQVTFCSNREASSQAPFIASLSLKSPGRFERILLRAANTHSSAKPCGQQSIHLGGVFELQPGASVFVNVTDPSQVSHGTGFTSFGLLKL
light: QTVLTQSPSSLSVSVGDRVTITCRASSSVTYIHWYQQKPGLAPKSLIYATSNLASGVPSRFSGSGSGTDYTFTISSLQPEDIATYYCQHWSSKPPTFGQGTKVEVKRTVAAPSVFIFPPSDEQLKSGTASVVCLLNNFYPREAKVQWKVDNALQSGNSQESVTEQDSKDSTYSLSSTLTLSKADYEKHKVYACEVTHQGLSSPVTKSFNRGEC
